Results on one protein are retold here after PMC7111312 (Virology, 2019).

The series deals with the molecule itself. Kind of series: crystal structure.

What is called stoichiometry N is the number of molecules, sites or subunits per partner or assembly.

B1: Wild type CavV 3CLpro (Cavally virus 3C-like protease) (enzyme, Cavally virus (CavV), UniProt F8RL29 1387-1700, looked up)
chain: SAASNPSISHIVLEMPVAINPLIKYTTRTSVSSLRGAVVNGYIYIQRHLFGSKKQEFEACYNNGKGLLNCKNLERSKYDIDSAELIGTLIRIPLHDKHSIPHISIHPDPLSYNGPVTLYLSRYDTELNKDVLCVHTGFMSEGHHDIKTVFGDCGGMLFDPKGRLLGLHCAGSDDVVFMDTTTGKSNIWTSYKLQHPSEIMITLNNEINLPNPANYDFETTKVVYQHPLRNVCATLETLQHLTNKTNAKLPYDSRLLSDFNITAEQYNQYGYYIDYNNFVNNFNRYTTTTIGTKSFETCIKYGLMDNKKPDYYNQ
On to B1, for which the “stoichiometry N” value amounted to 2.
